Test [1] deals with complex I from ndufs4-/- mouse (heart, kidney) (mouse) (UniProt Q91YT0). As to the kind of experiment: cryo-EM structure; complex I purified whole from ndufs4-/- mouse heart, cross-linked twice with BS3 (0.25 mM during solubilisation, 2.5 mM before the grids), 0.05% DDM, PEGylated gold grids; focused classification into three classes.
A further test addresses T1, ACADVL (mouse), P50544.
T1 chain: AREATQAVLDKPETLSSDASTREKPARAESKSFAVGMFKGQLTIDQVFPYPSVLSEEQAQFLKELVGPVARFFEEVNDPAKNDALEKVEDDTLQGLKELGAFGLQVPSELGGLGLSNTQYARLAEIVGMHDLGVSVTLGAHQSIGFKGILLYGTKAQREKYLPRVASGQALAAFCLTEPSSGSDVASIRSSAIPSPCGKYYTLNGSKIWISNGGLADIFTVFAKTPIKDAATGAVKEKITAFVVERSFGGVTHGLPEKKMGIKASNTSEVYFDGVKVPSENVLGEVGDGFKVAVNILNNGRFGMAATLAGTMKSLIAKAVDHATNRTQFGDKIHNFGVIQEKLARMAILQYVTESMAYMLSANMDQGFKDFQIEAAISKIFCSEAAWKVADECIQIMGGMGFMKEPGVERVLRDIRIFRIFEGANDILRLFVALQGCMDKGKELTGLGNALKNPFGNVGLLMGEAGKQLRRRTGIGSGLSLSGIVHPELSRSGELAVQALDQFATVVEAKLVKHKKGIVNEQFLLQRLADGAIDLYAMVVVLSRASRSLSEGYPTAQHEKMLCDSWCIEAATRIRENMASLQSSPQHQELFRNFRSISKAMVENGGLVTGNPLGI
The description is as above. Particulars: remark: other sources report otherwise.

As a reminder, the stoichiometry N is a count of units in the complex or per binding partner.

Sequence of UniProt Q91YT0 (Q91YT0 whole entry, looked up, one chain of several): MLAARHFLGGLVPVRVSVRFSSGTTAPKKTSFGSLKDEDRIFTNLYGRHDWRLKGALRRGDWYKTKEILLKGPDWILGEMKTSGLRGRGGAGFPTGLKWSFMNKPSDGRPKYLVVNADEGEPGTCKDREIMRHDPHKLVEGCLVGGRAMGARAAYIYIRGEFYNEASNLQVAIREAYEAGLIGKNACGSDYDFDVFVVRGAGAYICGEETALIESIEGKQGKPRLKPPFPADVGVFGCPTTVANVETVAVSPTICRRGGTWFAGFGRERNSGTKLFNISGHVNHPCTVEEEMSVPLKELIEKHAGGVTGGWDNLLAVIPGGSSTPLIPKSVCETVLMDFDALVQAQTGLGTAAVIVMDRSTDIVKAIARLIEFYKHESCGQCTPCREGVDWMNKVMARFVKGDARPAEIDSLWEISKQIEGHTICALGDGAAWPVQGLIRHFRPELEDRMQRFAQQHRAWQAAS

With “assembly factor NDUFAF2 (natural protein)”, the percent of the complex I particles that contain it in test [1] amounted to 14%.

B1: ACADVL, P50544 42-656 (natural protein)
chain: AREATQAVLDKPETLSSDASTREKPARAESKSFAVGMFKGQLTIDQVFPYPSVLSEEQAQFLKELVGPVARFFEEVNDPAKNDALEKVEDDTLQGLKELGAFGLQVPSELGGLGLSNTQYARLAEIVGMHDLGVSVTLGAHQSIGFKGILLYGTKAQREKYLPRVASGQALAAFCLTEPSSGSDVASIRSSAIPSPCGKYYTLNGSKIWISNGGLADIFTVFAKTPIKDAATGAVKEKITAFVVERSFGGVTHGLPEKKMGIKASNTSEVYFDGVKVPSENVLGEVGDGFKVAVNILNNGRFGMAATLAGTMKSLIAKAVDHATNRTQFGDKIHNFGVIQEKLARMAILQYVTESMAYMLSANMDQGFKDFQIEAAISKIFCSEAAWKVADECIQIMGGMGFMKEPGVERVLRDIRIFRIFEGANDILRLFVALQGCMDKGKELTGLGNALKNPFGNVGLLMGEAGKQLRRRTGIGSGLSLSGIVHPELSRSGELAVQALDQFATVVEAKLVKHKKGIVNEQFLLQRLADGAIDLYAMVVVLSRASRSLSEGYPTAQHEKMLCDSWCIEAATRIRENMASLQSSPQHQELFRNFRSISKAMVENGGLVTGNPLGI
In the test with ACADVL (mouse), P50544, B1 came in with a stoichiometry N of 2.

Values taken from publication PMC10897435.
